The source of these data is the Immune Epitope Database (IEDB).

pIC50, pKd: −log10 of the molar value.

Assay [1] addresses HLA-C*07:02. As to the kind of experiment: IEDB peptide-MHC binding, purified MHC/direct/fluorescence; filed as Kd, often an IC50 or EC50 that approximates it; ≥ and ≤ were set here for values at or beyond the usual limits of such assays. The note with it: source organism: SARS-CoV1.
Assay [2] deals with HLA-A*24:02. As to the kind of experiment: IEDB peptide-MHC binding, purified MHC/competitive/fluorescence; filed as Kd, often an IC50 or EC50 that approximates it; ≥ and ≤ were set here for values at or beyond the usual limits of such assays. The note with it: source organism: SARS-CoV1.
Assay [3] has as its target HLA-A*01:01. As to the kind of experiment: IEDB peptide-MHC binding, purified MHC/competitive/radioactivity; filed as Kd, often an IC50 or EC50 that approximates it; ≥ and ≤ were set here for values at or beyond the usual limits of such assays. The settings on record: source organism: SARS coronavirus Tor2.
For assay [4], the target named is HLA-A*29:02. The description is as above. The settings on record: source organism: SARS coronavirus Tor2.
The target in assay [5] is HLA-A*23:01. Described as above. The settings on record: source organism: SARS coronavirus Tor2.
The target in assay [6] is HLA-A*30:02. The assay is described as above. The note with it: source organism: SARS coronavirus Tor2.
For assay [7], the target named is HLA-A*26:01. Described as above. The settings on record: source organism: SARS coronavirus Tor2.
The target in assay [8] is HLA-B*15:01. As to the kind of experiment: IEDB peptide-MHC binding, purified MHC/direct/fluorescence; filed as Kd, often an IC50 or EC50 that approximates it; ≥ and ≤ were set here for values at or beyond the usual limits of such assays.
For assay [9], the target named is HLA-A*30:01. Described as above.
For assay [10], the target named is HLA-A*24:03. Described as above. The note with it: source organism: Corynebacterium glutamicum.
Assay [11] addresses HLA-A*02:01. Described as above.
Assay [12] has as its target HLA-B*08:01. The assay is described as above.
In assay [13] the target is HLA-B*27:05. Described as above.
Assay [14] addresses HLA-A*01:01. Described as above.
In assay [15] the target is HLA-B*58:01. Described as above.
Assay [16] has as its target HLA-A*03:01. The description is as above.
The target of assay [17] is HLA-B*40:01. Described as above.
Assay [18] has as its target HLA-A*26:01. The description is as above.
Assay [19] addresses HLA-A*31:01. Described as above. The settings on record: source organism: Corynebacterium glutamicum.
Assay [20] addresses HLA-A*69:01. Described as above.
Assay [21] addresses HLA-A*11:01. The assay is described as above.
In assay [22] the target is HLA-B*44:02. The assay is described as above. The note with it: source organism: Giardia lamblia ATCC 50803.
For assay [23], the target named is HLA-B*07:02. Described as above. The settings on record: source organism: Giardia lamblia ATCC 50803.
In assay [24] the target is HLA-B*57:01. The description is as above. The note with it: source organism: Camelpox virus M-96.
Assay [25] concerns the target HLA-B*46:01. The assay is described as above. The note with it: source organism: Camelpox virus M-96.
Assay [26] has as its target HLA-B*38:01. Described as above. The settings on record: source organism: Variola virus.
Assay [27] concerns the target HLA-B*08:03. The description is as above. The note with it: source organism: Variola virus.
The target of assay [28] is HLA-B*48:01. The assay is described as above. The settings on record: source organism: Camelpox virus M-96.
The target of assay [29] is HLA-A*68:02. Described as above. The note with it: source organism: Camelpox virus M-96.
In assay [30] the target is HLA-B*08:02. Described as above. The note with it: source organism: Variola virus.
Assay [31] has as its target HLA-B*39:01. The description is as above. The note with it: source organism: Camelpox virus M-96.
In assay [32] the target is HLA-A*11:01. As to the kind of experiment: IEDB peptide-MHC binding, purified MHC/competitive/fluorescence; ≥ and ≤ were set here for values at or beyond the usual limits of such assays. The settings on record: source organism: Variola virus.
Assay [33] deals with HLA-B*15:01. As to the kind of experiment: IEDB peptide-MHC binding, purified MHC/competitive/fluorescence; filed as Kd, often an IC50 or EC50 that approximates it; ≥ and ≤ were set here for values at or beyond the usual limits of such assays. The note with it: source organism: Vaccinia virus WR.
Assay [34] addresses HLA-B*35:01. The description is as above. The settings on record: source organism: Vaccinia virus WR.
The target in assay [35] is HLA-A*26:02. The description is as above. The settings on record: source organism: Vaccinia virus WR.
Assay [36] addresses HLA-A*01:01. Described as above. The settings on record: source organism: Vaccinia virus WR.
The target in assay [37] is HLA-B*07:02. The description is as above. The settings on record: source organism: Vaccinia virus WR.
The target of assay [38] is HLA-B*18:01. Described as above. The settings on record: source organism: Vaccinia virus WR.
In assay [39] the target is HLA-B*15:17. The description is as above. The settings on record: source organism: Vaccinia virus WR.
Where [40] appears, read: source organism: Corynebacterium glutamicum.
[41] abbreviates: source organism: Giardia lamblia ATCC 50803.
Setting [42] is: source organism: Camelpox virus M-96.

Consider NYMPYVFTL, for which the pKd in assay [1] was not below 9.00; in assay [2], not below 10.00; in assay [3] it was not above 4.11; in assay [4] it was 6.43; in assay [5], 8.20; in assay [6], 4.74. Besides, the pKd in assay [7] is not above 4.29.

As to VHDREGNEV, the pKd in assay [8] (setting [40]) is not above 4.70; in assay [9] (setting [40]), 5.32; in [10], not above 4.70; in assay [11] (setting [40]), not above 4.70; in [12] (setting [40]) it was not above 4.70; in assay [13] (setting [40]), not above 4.70. Moreover, the pKd in assay [14] (setting [40]), in assay [15] (setting [40]), in assay [16] (setting [40]), in assay [17] (setting [40]), in [18] (setting [40]) and in [19] was not above 4.70 in each case. In addition, the pKd in assay [20] (setting [40]) and in [21] (setting [40]) was not above 4.70 each time.

As to ASSWAPTQK, the pKd is not above 4.70 in assay [8] (setting [41]); 5.38 in assay [9] (setting [41]); not above 4.70 in [11] (setting [41]); not above 4.70 in assay [12] (setting [41]); not above 4.70 in [22]; not above 4.70 in assay [13] (setting [41]). The pKd in [14] (setting [41]) is not above 4.70; in [15] (setting [41]), not above 4.70; in assay [16] (setting [41]), 6.29; in [23], not above 4.70; in [17] (setting [41]), not above 4.70; in assay [18] (setting [41]), not above 4.70. Also, the pKd is not above 4.70 in [20] (setting [41]) and 7.76 in assay [21] (setting [41]).

Turning to IHIPGDTLF, the pKd in [24] was not above 4.70; in assay [11] (setting [42]), not above 4.70; in [25], not above 4.70; in [12] (source organism: Variola virus), not above 4.70; in assay [26] it was 6.41; in [13] (setting [42]), not above 4.70. Also, the pKd in assay [27], in [28], in assay [15] (setting [42]), in assay [29], in [30] and in assay [17] (setting [42]) was not above 4.70 throughout. Besides, the pKd is not above 4.70 in [18] (source organism: Variola virus); not above 4.70 in [20] (setting [42]); not above 4.70 in assay [31]; not above 4.70 in [33]; 6.44 in [34]; not above 4.70 in [35]. For the same sequence, the pKd in [36] is not above 4.70; in assay [37], not above 5.30; in assay [38], not above 4.70; in assay [39] it was not above 4.70. Also, the negative-log IC50 (pIC50) in assay [32] was not above 3.82.

A word on the pKd: it is −log10 of the Kd, conventionally taken in molar units. By pIC50 is commonly meant the IC50 on a negative log10 scale, so that one unit is a factor of ten.
